Measurements published in PMC6872814, “Functional interactions between nitrite reductase and nitric oxide reductase from Paracoccus denitrificans” (Scientific Reports, 2019).

How the values were obtained:
[1] = target: the molecule itself; assay: fluorescence correlation spectroscopy (photon count-rate per molecule, CPM); increasing concentrations of cd1NiR-STAR 635 alone; CPM fitted with the ligand-binding model (Eq. 2); apparent; monomer to dimer; points above 15 nM not in the fit
[2] = target: the molecule itself; assay: fluorescence correlation spectroscopy (photon count-rate per molecule, CPM); increasing concentrations of cd1NiR-STAR 635 with 40 nM unlabelled cNOR in the solution; CPM fitted with the ligand-binding model (Eq. 2); apparent; monomer to dimer

B1: cytochrome cd1 nitrite reductase (cd1NiR) from Paracoccus pantotrophus, labelled with Abberior STAR 635 (enzyme, UniProt P72181 30-596, looked up)
chain: QEQVAPPKDPAAALEDHKTRTDNRYEPSLDNLAQQDVAAPGAPEGVSALSDAQYNEANKIYFERCAGCHGVLRKGATGKALTPDLTRDLGFDYLQSFITYGSPAGMPNWGTSGELSAEQVDLMANYLLLDPAAPPEFGMKEMRESWKVHVAPEDRPTQQENDWDLENLFSVTLRDAGQIALIDGATYEIKSVLDTGYAVHISRLSASGRYLFVIGRDGKVNMIDLWMKEPTTVAEIKIGSEARSIETSKMEGWEDKYAIAGAYWPPQYVIMDGETLEPKKIQSTRGMTYDEQEYHPEPRVAAILASHYRPEFIVNVKETGKILLVDYTDLDNLKTTEISAERFLHDGGLDGSHRYFITAANARNKLVVIDTKEGKLVAIEDTGGQTPHPGRGANFVHPTFGPVWATSHMGDDSVALIGTDPEGHPDNAWKILDSFPALGGGSLFIKTHPNSQYLYVDATLNPEAEISGSVAVFDIKAMTGDGSDPEFKTLPIAEWAGITEGQPRVVQGEFNKDGTEVWFSVWNGKDQESALVVVDDKTLELKHVIKDERLVTPTGKFNVYNTMTDTY
modifications: Abberior STAR 635 (amino-reactive dye, 5-fold molar excess; sites not stated); heme c and heme d1
notes: cytochrome cd1 nitrite reductase (cd1NiR), Paracoccus pantotrophus (G6), soluble periplasmic protein; 97% identical to the P. denitrificans enzyme; STAR 635-labelled in the fluorescence experiments; the activity assays (functional rows) used the same protein unlabelled; Written as the monomer chain; also called cd1NiR-STAR 635; cd1NIR-STAR 635
Kd [1]: 3.5 ± 0.1 nM
Kd [2]: 5.3 ± 0.2 nM
